Experimental data published in the Immune Epitope Database (IEDB).

How the values were obtained:
[1] = molecular target: HLA-C*15:02; assay: IEDB peptide-MHC binding, purified MHC/direct/fluorescence; filed as Kd, often an IC50 or EC50 that approximates it; ≥ and ≤ were set here for values at or beyond the usual limits of such assays; conditions: source organism: Yersinia pseudotuberculosis IP 31758
[2] = molecular target: HLA-C*14:02; assay: as above; conditions: source organism: Yersinia pseudotuberculosis IP 31758
[3] = molecular target: HLA-B*45:06; assay: IEDB peptide-MHC binding, purified MHC/competitive/fluorescence; filed as Kd, often an IC50 or EC50 that approximates it; ≥ and ≤ were set here for values at or beyond the usual limits of such assays
[4] = molecular target: HLA-B*40:13; assay: as above
[5] = molecular target: HLA-A*32:07; assay: as above
[6] = molecular target: HLA-A*02:01; assay: as above
[7] = molecular target: HLA-B*83:01; assay: as above
[8] = molecular target: HLA-B*15:42; assay: as above
[9] = molecular target: HLA-B*27:20; assay: as above
[10] = molecular target: HLA-C*06:02; assay: as above; conditions: source organism: Yersinia pseudotuberculosis IP 31758
[11] = molecular target: HLA-A*24:02; assay: IEDB peptide-MHC binding, purified MHC/competitive/fluorescence; ≥ and ≤ were set here for values at or beyond the usual limits of such assays; conditions: source organism: Homo sapiens
[12] = molecular target: HLA-B*40:02; assay: as above; conditions: source organism: Homo sapiens
[13] = molecular target: HLA-C*07:02; assay: IEDB peptide-MHC binding, purified MHC/direct/fluorescence; filed as Kd, often an IC50 or EC50 that approximates it; ≥ and ≤ were set here for values at or beyond the usual limits of such assays
[14] = molecular target: HLA-A*01:01; assay: IEDB peptide-MHC binding, purified MHC/competitive/radioactivity; ≥ and ≤ were set here for values at or beyond the usual limits of such assays; conditions: source organism: Homo sapiens
[15] = molecular target: HLA-A*01:01; assay: IEDB peptide-MHC binding, purified MHC/direct/fluorescence; filed as Kd, often an IC50 or EC50 that approximates it; ≥ and ≤ were set here for values at or beyond the usual limits of such assays; conditions: source organism: Homo sapiens
[16] = molecular target: HLA-B*15:01; assay: as above
[17] = molecular target: HLA-A*11:01; assay: as above; conditions: source organism: Homo sapiens
[18] = molecular target: HLA-C*03:03; assay: as above; conditions: source organism: Escherichia coli HS
[19] = molecular target: HLA-C*12:03; assay: as above; conditions: source organism: Escherichia coli HS
[20] = molecular target: HLA-C*06:02; assay: as above; conditions: source organism: Escherichia coli HS
[21] = molecular target: HLA-B*48:01; assay: IEDB peptide-MHC binding, purified MHC/competitive/fluorescence; filed as Kd, often an IC50 or EC50 that approximates it; ≥ and ≤ were set here for values at or beyond the usual limits of such assays; conditions: source organism: Escherichia coli HS
[22] = molecular target: HLA-A*32:15; assay: as above; conditions: source organism: Escherichia coli HS
[23] = molecular target: HLA-C*04:01; assay: as above; conditions: source organism: Escherichia coli HS
[24] = molecular target: HLA-C*14:02; assay: as above; conditions: source organism: Escherichia coli HS
[25] = molecular target: HLA-A*03:01; assay: as above
[26] = molecular target: HLA-A*24:02; assay: as above; conditions: source organism: Corynebacterium glutamicum ATCC 13032
[27] = molecular target: HLA-B*58:01; assay: as above; conditions: source organism: Corynebacterium glutamicum ATCC 13032
[28] = molecular target: HLA-A*01:01; assay: as above; conditions: source organism: Corynebacterium glutamicum ATCC 13032
[29] = molecular target: HLA-B*15:01; assay: as above; conditions: source organism: Corynebacterium glutamicum ATCC 13032
[30] = molecular target: HLA-B*07:02; assay: as above; conditions: source organism: Corynebacterium glutamicum ATCC 13032
[31] = molecular target: HLA-B*40:01; assay: as above; conditions: source organism: Corynebacterium glutamicum ATCC 13032
[32] = molecular target: HLA-B*27:05; assay: as above; conditions: source organism: Corynebacterium glutamicum ATCC 13032
[33] = molecular target: HLA-A*03:01; assay: IEDB peptide-MHC binding, purified MHC/direct/fluorescence; filed as Kd, often an IC50 or EC50 that approximates it; ≥ and ≤ were set here for values at or beyond the usual limits of such assays; conditions: source organism: Zaire ebolavirus
[34] = molecular target: HLA-A*02:03; assay: as above; conditions: source organism: Zaire ebolavirus
[35] = molecular target: HLA-A*02:11; assay: as above; conditions: source organism: Zaire ebolavirus
[36] = molecular target: HLA-A*02:19; assay: as above; conditions: source organism: Zaire ebolavirus
[37] = molecular target: HLA-A*68:02; assay: as above; conditions: source organism: Zaire ebolavirus
[38] = molecular target: HLA-A*02:12; assay: as above; conditions: source organism: Zaire ebolavirus
[39] = molecular target: HLA-A*02:16; assay: as above; conditions: source organism: Zaire ebolavirus
[40] = molecular target: HLA-B*27:03; assay: IEDB peptide-MHC binding, purified MHC/competitive/fluorescence; filed as Kd, often an IC50 or EC50 that approximates it; ≥ and ≤ were set here for values at or beyond the usual limits of such assays; conditions: source organism: Zaire ebolavirus
[41] = molecular target: HLA-A*26:01; assay: as above; conditions: source organism: Zaire ebolavirus
[42] = molecular target: HLA-B*39:01; assay: as above; conditions: source organism: Zaire ebolavirus
[43] = molecular target: HLA-B*57:01; assay: as above; conditions: source organism: Zaire ebolavirus
[44] = molecular target: HLA-B*35:01; assay: as above; conditions: source organism: Zaire ebolavirus
[45] = molecular target: HLA-A*69:01; assay: as above; conditions: source organism: Zaire ebolavirus
[46] = molecular target: HLA-A*25:01; assay: as above; conditions: source organism: Zaire ebolavirus
[47] = molecular target: HLA-B*51:01; assay: as above; conditions: source organism: Zaire ebolavirus
[48] = molecular target: HLA-A*68:23; assay: as above; conditions: source organism: Shigella flexneri 5 str. 8401
[49] = molecular target: HLA-A*31:01; assay: as above; conditions: source organism: Shigella flexneri 5 str. 8401
[50] = source organism: Yersinia pseudotuberculosis IP 31758
[51] = source organism: Escherichia coli HS
[52] = source organism: Corynebacterium glutamicum ATCC 13032
[53] = source organism: Shigella flexneri 5 str. 8401

## FQWWRSHPL
[1]
  Kd: 1400 nM
[2]
  Kd: 232 nM
[3]; [50]
  Kd: ≥ 5000 nM
[4]; [50]
  Kd: 1.3 nM
[5]; [50]
  Kd: 73.6 nM
[6]; [50]
  Kd: ≤ 0.1 nM
[7]; [50]
  Kd: 475 nM
[8]; [50]
  Kd: ≥ 5000 nM
[9]; [50]
  Kd: ≤ 0.1 nM
[10]
  Kd: 837 nM

## FYYNAFHWAI
[11]
  IC50: 305 nM
[12]
  IC50: ≥ 20000 nM
[13]; source organism: Homo sapiens
  Kd: 182 nM

## IVDCLTEMY
[14]
  IC50: 7 nM
[15]
  Kd: 164 nM
[16]; source organism: Homo sapiens
  Kd: 1090 nM
[17]
  Kd: 2020 nM

## MMWATAQAL
[18]
  Kd: 337 nM
[19]
  Kd: 1640 nM
[20]
  Kd: ≥ 20000 nM
[13]; [51]
  Kd: 572 nM
[3]; [51]
  Kd: ≥ 5000 nM
[4]; [51]
  Kd: 212 nM
[21]
  Kd: 242 nM
[5]; [51]
  Kd: 42 nM
[7]; [51]
  Kd: ≥ 5000 nM
[8]; [51]
  Kd: ≥ 5000 nM
[22]
  Kd: 391 nM
[9]; [51]
  Kd: 6.4 nM
[23]
  Kd: ≥ 5000 nM
[24]
  Kd: 6.4 nM

## MSSAAHLLY
[25]; [52]
  Kd: 161 nM
[26]
  Kd: ≥ 20000 nM
[27]
  Kd: 6.1 nM
[28]
  Kd: 14.1 nM
[29]
  Kd: 46.5 nM
[30]
  Kd: ≥ 20000 nM
[6]; [52]
  Kd: ≥ 20000 nM
[31]
  Kd: ≥ 20000 nM
[32]
  Kd: ≥ 20000 nM

## NFFHASLAY
[33]
  Kd: ≥ 20000 nM
[16]; source organism: Sudan ebolavirus - Maleo (1979)
  Kd: 64.1 nM
[34]
  Kd: ≥ 20000 nM
[35]
  Kd: ≥ 20000 nM
[36]
  Kd: ≥ 20000 nM
[37]
  Kd: ≥ 20000 nM
[38]
  Kd: ≥ 20000 nM
[39]
  Kd: ≥ 20000 nM
[40]
  Kd: ≥ 20000 nM
[41]
  Kd: ≥ 20000 nM
[42]
  Kd: ≥ 20000 nM
[43]
  Kd: ≥ 20000 nM
[44]
  Kd: 6 nM
[45]
  Kd: ≥ 20000 nM
[46]
  Kd: ≥ 20000 nM
[6]; source organism: Zaire ebolavirus
  Kd: ≥ 20000 nM
[47]
  Kd: ≥ 20000 nM

## TTIPTNLFR
[3]; [53]
  Kd: ≥ 5000 nM
[25]; [53]
  Kd: 3000 nM
[7]; [53]
  Kd: ≥ 5000 nM
[8]; [53]
  Kd: ≥ 5000 nM
[48]
  Kd: 332 nM
[49]
  Kd: 121 nM
